# Target: mouse TLR5 (toll-like receptor 5) expressed on HEK293/mTLR5 cell line (mouse) (UniProt Q9JLF7)
# Test: cell-based or functional assay
# Chain of UniProt Q9JLF7 (Q9JLF7 27-859): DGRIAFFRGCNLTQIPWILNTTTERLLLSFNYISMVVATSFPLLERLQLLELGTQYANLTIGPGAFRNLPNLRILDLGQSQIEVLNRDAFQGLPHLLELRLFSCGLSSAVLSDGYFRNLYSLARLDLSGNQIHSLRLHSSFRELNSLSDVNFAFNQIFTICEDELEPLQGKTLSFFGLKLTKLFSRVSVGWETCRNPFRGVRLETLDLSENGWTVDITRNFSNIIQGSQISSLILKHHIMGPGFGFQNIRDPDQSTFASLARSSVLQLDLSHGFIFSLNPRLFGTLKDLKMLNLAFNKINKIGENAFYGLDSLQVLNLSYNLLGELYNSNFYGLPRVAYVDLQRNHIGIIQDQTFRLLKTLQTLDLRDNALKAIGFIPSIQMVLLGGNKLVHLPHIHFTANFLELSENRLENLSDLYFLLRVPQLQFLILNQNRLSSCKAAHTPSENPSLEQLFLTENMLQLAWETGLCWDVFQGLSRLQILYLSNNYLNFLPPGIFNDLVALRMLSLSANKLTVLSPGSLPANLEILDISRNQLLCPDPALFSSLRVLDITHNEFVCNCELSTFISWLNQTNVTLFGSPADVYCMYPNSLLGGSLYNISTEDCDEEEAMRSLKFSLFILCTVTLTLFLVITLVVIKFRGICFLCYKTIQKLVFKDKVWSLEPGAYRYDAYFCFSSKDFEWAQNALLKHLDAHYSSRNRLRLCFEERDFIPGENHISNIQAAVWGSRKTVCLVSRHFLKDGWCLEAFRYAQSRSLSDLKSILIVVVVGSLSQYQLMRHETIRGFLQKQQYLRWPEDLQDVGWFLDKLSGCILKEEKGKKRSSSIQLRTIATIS
substance,measurement,value
"sgFliC (Salmonella gallinarum-derived FliC, filament structural protein, expressed from psgFliC and secreted by attenuated Salmonella gallinarum SG4052) (from UniProt Q06972 1-494) (ligand)",QUANTI-Blue SEAP assay using HEK293/mTLR5 cell line (TLR5 stimulation relative to FLA-ST),2 fold

# Source: patent publication US20240240140A1
